We go through one substance from patent US20260116983A1.

Assay [1] addresses human uPAR displayed on the surface of MDA-MB-231 cells (human) (UniProt Q03405). Nature of the assay: cell-based or functional assay.
For assay [2] the target is unchanged. Nature of the assay: flow cytometry (FACS) on MDA-MB-231 cells; isotype control. For orientation: Flow cytometry measures light scatter and fluorescence of single cells or particles in a stream.

Chain of human uPAR displayed on the surface of MDA-MB-231 cells (human) (Q03405 23-305): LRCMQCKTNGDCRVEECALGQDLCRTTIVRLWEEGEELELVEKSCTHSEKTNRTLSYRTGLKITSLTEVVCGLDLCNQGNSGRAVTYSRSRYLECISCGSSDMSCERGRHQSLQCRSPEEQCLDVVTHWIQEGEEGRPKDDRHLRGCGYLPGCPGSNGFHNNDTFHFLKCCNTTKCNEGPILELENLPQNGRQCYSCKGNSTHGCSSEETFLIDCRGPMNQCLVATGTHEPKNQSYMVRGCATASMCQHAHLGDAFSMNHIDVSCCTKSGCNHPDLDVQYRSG

In assay [1], human IgG1 control (antibody) came in with an ADCC NK-92 Max % of 0.468% and an ADCC PBMCs Max % of 4.8%. In assay [2], this substance gave a Cellular recognition Max % of 155%.
